Experimental findings from patent US20100279930A1 (published 2010) are described below.

Assay [1] deals with T1, human Y4 receptor (human, UniProt P50391 1-375). Briefly: 125I-PP displacement.
The target of assay [2] is T1, human Y4 receptor. Put plainly: 125I-PP displacement. This is another data set of the same source.

Where two headings read alike, the source gives them in different places.

T1 sequence (P50391 whole entry): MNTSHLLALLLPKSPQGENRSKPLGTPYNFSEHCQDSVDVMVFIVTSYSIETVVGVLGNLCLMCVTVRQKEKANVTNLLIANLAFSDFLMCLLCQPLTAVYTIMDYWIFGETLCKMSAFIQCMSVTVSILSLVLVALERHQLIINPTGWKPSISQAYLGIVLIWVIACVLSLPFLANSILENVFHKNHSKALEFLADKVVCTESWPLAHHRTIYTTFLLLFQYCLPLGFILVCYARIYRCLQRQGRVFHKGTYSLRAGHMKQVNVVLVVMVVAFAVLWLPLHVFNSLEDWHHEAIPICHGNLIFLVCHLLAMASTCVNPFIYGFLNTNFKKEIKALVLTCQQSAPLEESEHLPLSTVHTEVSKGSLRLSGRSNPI

On to PAPLEPTYPGDNATPEELARYAAALRRYINKLTRPRY [4058738], for which the IC50 (commonly the concentration that inhibits the measured activity by half) in the assay with human Y4 receptor [1] was 0.055 nM.

On to PLEPKYPGDNATPEELAKYAAELRRYINKLTRPRY [4058687], for which, in the assay with human Y4 receptor [1], the IC50 worked out at 0.096 nM. Same read-out and setting: for PLEPEYPGDNATPEEMARYAAELRRYINKLTRPRY [4058674] the value was 0.082 nM; for PLEPEYPGDNATPEELAKYAAELRRYINKLTRPRY [4058677], 0.138 nM.

In turn, PLEPEYPGDNATPEEMAKYAAALRRYINKLTRPRY [4058676] returned an IC50 with human Y4 receptor [1] of 0.061 nM. On the same count and under the same terms, as for PLEPHYPGDNATPEELAKYAAELRRYINKLTRPRY [4058702], the figure is 0.086 nM; as for PLEPKYPGDDATPEELAHYYSELRRYINKLTRPRY [4058706], 0.084 nM. On the same count and under the same terms, as for PLEPEYPGDNATPEEMAKYAADLRRYINKLTRPRY [4058675], the figure is 0.095 nM. The molecule APLEPFYPGDNATPEQMAQYAAALRRYINMLTRPRY [6605] returned an IC50 with human Y4 receptor [2] of 0.13 nM. On the same count and under the same terms, as for APLEPVYPGDNATPEQMAQYAADLRKYINMLTRPRY [6431], the figure is 0.47 nM; as for APLEPVYPGDDATPQQMAQYAAELRRYINMLTRPRY [6457], 0.13 nM; as for KPLEPVYPGDNATPEQMAQYAADLRRYINMLTRPRY (not fully specified; lauryl-lysine at position 1 (replaces Ala 1)) [compound of SEQ ID NO:11 (code 6435)], 0.13 nM.

In the case of APLEPVYPGDNATPEQMAQYAADLRRYINLLTRPRY [6430], the IC50 with human Y4 receptor [2] worked out at 0.41 nM.

Turning to APLEPVYPGDNATPEQLAQYAADLRRYINMLTRPRY [6429], the IC50 with human Y4 receptor [2] came out at 0.55 nM. As to KPLEPVYPGDNATPEQMAQYAADLRRYINMLTRPRY [6434], in the assay with human Y4 receptor [2], the IC50 was determined as 0.25 nM. Still for that read-out and setting: for GPLEPVYPGDNATPEQMAQYAADLRRYINMLTRPRY [6636] the value was 0.6 nM; for APLEPVYPGDNATPEQMAHYYASLRRYINMLTRPRY [6640], 0.15 nM. The same measure, in the same setting: as for APLEPVYPGDNATPEQTAQYAADLRRYINTLTRPRY [6638], the figure is 0.5 nM; as for APLEPVYPGDNATPEQMAQYAADLRHYINMLTRPRY [6438], 0.49 nM; as for APLEPVYPGDNATPEQMAQYAADLRRYINMLTRPAY [6449], 2.2 nM. In the case of APLEPVYPGDNATPEQMAQYAADLKRYINMLTRPRY [6432], in the assay with human Y4 receptor [2], the IC50 worked out at 0.36 nM.

The molecule APLEPVYPGDNATPEQMAQYAADLRRYINMLTKPRY [6452] gave an IC50 in the assay with human Y4 receptor [2] of 0.42 nM. Same read-out and setting: as for APLEPEYPGDNATPEQMAQYAAELRRYINMLTRPRY [6458], the figure is 0.18 nM. Regarding APLEPVYPGDNATPEQMAQYAADLRRYINMLTAPRY [6450], the IC50 in the assay with human Y4 receptor [2] came to 8.8 nM. PAPLEPHYPGDDATPEEMAKYAAELRRYINKLTRPRY [4058701] registered a half-maximal inhibitory concentration (IC50) with human Y4 receptor [1] of 0.099 nM. Still for that read-out and setting: as for PAPLEPHYPGDNATPEELAKYAAELRRYINKLTRPRY [4058678], the figure is 0.09 nM; as for AAPLEPHYPGDNATPEELAKYAAELRRYINKLTRPRY [4058704], 0.094 nM; as for HAPLEPHYPGDNATPEEMAKYAAELRRYINKLTRPRY [4058699], 0.092 nM.

For the molecule PAPLEPEYPGDDATPQEMARYAAELRRYINKLTRPRY [4058681], the IC50 with human Y4 receptor [1] is 0.087 nM. With PAPLEPKYPGDNATPEELAKYAAELRRYINKLTRPRY [4058671], in the assay with human Y4 receptor [1], the IC50 was found to be 0.105 nM. For the molecule AAPLEPEYPGDDATPQEMARYAAELRRYINKLTRPRY [4058683], the 50% inhibitory concentration (IC50) with human Y4 receptor [1] amounted to 0.081 nM.

With PAPLEPKYPGDNASPEQMAKYAAELRRYINKLTRPRY [4058669], in the assay with human Y4 receptor [1], the IC50 came out at 0.043 nM.

Consider HAPLEPKYPGDNATPEELAKYAAELRRYINKLTRPRY [4058692], for which the IC50 with human Y4 receptor [1] came out at 0.131 nM. Same read-out and setting: as for GAPLEPKYPGDNATPEELAKYAAELRRYINKLTRPRY [4058691], the figure is 0.098 nM; as for YAPLEPEYPGDDATPQEMARYAAELRRYINKLTRPRY [4058684], 0.087 nM. Consider PAPLEPHYPGDDATPEELAKYAAELRRYINKLTRPRY [4058705], for which the IC50 in the assay with human Y4 receptor [1] turned out to be 0.097 nM. Still for that read-out and setting: as for AAPLEPKYPGDNATPEELAKYAAELRRYINKLTRPRY [4058689], the figure is 0.098 nM; as for GAPLEPHYPGDNATPEEMAKYAAELRRYINKLTRPRY [4058698], 0.072 nM; as for YAPLEPKYPGDNATPEELAKYAAELRRYINKLTRPRY [4058693], 0.077 nM.

On to GAPLEPEYPGDDATPQEMARYAAELRRYINKLTRPRY [4058682], for which the IC50 in the assay with human Y4 receptor [1] was determined as 0.076 nM. PAPLEPKYPGDDATPQQMAKYAAELRRYINKLTRPRY [4058670] yielded an IC50 in the assay with human Y4 receptor [1] of 0.08 nM. On the same count and under the same terms, for PAPLEPKAPGDNATPEQMAKYAAELRRYINKLTRPRY [4058668] the value was 0.074 nM; for APLEPHYPGDNATPEELAKYAAELRRYINKLTRPRY [4058703], 0.059 nM. Take HAPLEPKYPGDDATPEELAHYYSELRRYINKLTRPRY [4058710]: the IC50 with human Y4 receptor [1] amounted to 0.129 nM.

In turn, PAPLEPKYPGDDATPEELAHYYSELRRYINKLTRPRY [4058709] registered an IC50 with human Y4 receptor [1] of 0.083 nM. AAPLEPKYPGDDATPEELAHYYSELRRYINKLTRPRY [4058708] gave an IC50 with human Y4 receptor [1] of 0.079 nM. In the case of APLEPVYPGDNATEEELVKYFIDLRRYINMLTRPRY [6622], the IC50 with human Y4 receptor [2] was determined as 1.2 nM. Take AKPLEPKYPGDNATPEELAKYAAELRRYINKLTRPRY [4058690]: in the assay with human Y4 receptor [1], the IC50 stood at 0.071 nM. Still for that read-out and setting: for AKPLEPEYPGDDATPQEMARYAAELRRYINKLTRPRY [4058685] the value was 0.09 nM; for APLEPEYPGDDATPQEMARYAAELRRYINKLTRPRY [4058680], 0.069 nM. On to APLEPHYPGDNATPEEMAKYAAELRRYINKLTRPRY [4058696], for which the IC50 in the assay with human Y4 receptor [1] turned out to be 0.045 nM. For the molecule HAPLEPVYPGDNATPEQMAQYAADLRRYINMLTRPRY [compound of SEQ ID NO:53 (code 6650)], in the assay with human Y4 receptor [2], the IC50 amounted to 0.17 nM. In the assay with human Y4 receptor [2], AAPLEPVYPGDNATPEQMAQYAADLRRYINLLTRPRY [6656] showed an IC50 of 0.22 nM.

Take PAPLEPVYPGDNATPEQMAQYAADLRRYINMLTRPRY [compound of SEQ ID NO:56 (code 6653)]: in the assay with human Y4 receptor [2], the IC50 worked out at 0.21 nM. As to APLEPVYPGDNATPEQMARYYASLRHYLNMLTRPRY [6462], the IC50 with human Y4 receptor [2] is 0.18 nM. Regarding APLEPKYPGDDATPEELAHYYSELRRYINKLTRPRY [4058707], in the assay with human Y4 receptor [1], the IC50 turned out to be 0.089 nM.
